Measurements from patent US20200199234A1 (published 2020).
Changes are numbered by the printed parent chain. One block for each binder: values may come before it.

Columns and labels:
N(A2B2)A-avi-His [1] = molecular target: T1, N(A2B2)A-avi-His (human, biotinylated avi-tag); test: SPR ProteOn, purified Fab
T1 construct: also called biotinylated N(A2B2)A-avi-His
T1 chain: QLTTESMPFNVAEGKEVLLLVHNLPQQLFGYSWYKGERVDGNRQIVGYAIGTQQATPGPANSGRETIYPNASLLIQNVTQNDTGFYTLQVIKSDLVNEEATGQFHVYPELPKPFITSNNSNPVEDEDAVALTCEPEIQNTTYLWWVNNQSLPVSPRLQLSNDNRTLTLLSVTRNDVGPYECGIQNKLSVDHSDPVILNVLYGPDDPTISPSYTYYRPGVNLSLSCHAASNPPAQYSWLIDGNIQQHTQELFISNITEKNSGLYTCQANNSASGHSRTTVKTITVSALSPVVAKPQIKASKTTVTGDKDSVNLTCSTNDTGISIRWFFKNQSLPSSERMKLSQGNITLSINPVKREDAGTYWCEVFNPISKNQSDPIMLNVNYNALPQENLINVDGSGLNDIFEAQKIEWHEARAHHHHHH

N(A2B2)A-avi-His [2] = molecular target: T1, N(A2B2)A-avi-His; test: SPR ProteOn, purified bispecific IgG
[3] = molecular target: T2, human CEA (CEACAM5) expressed on cells (MKN45; MV3 engineered to express human CEACAM5) (human, UniProt P06731 35-685); test: flow cytometry on MV3 cells expressing CEA
T2 sequence: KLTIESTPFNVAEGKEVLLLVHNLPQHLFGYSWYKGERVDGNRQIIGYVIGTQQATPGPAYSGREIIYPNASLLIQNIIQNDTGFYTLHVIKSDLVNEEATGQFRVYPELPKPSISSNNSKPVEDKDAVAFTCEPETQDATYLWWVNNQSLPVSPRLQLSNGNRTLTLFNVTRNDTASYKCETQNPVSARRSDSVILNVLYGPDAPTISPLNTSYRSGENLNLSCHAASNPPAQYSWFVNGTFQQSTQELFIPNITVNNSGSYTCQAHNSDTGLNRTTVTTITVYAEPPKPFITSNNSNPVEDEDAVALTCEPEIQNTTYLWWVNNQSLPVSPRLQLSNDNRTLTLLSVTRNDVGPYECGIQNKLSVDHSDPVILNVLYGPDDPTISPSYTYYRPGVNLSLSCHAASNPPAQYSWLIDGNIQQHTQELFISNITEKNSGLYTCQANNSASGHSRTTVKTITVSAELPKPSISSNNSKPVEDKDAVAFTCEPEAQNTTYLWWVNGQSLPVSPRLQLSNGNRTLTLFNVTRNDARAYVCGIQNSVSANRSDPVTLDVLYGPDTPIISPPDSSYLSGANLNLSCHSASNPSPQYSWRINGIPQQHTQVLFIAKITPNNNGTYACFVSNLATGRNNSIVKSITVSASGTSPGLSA

[4] = molecular target: human CD28 expressed on cells (CHO-k1 stably overexpressing human CD28; T cells in functional assays) (human, UniProt P10747 19-220); test: cell-based or functional assay
[5] = molecular target: T3, huCD28-Fc, dimeric human CD28 extracellular domain fused to human IgG1 Fc (knob/hole, PG-LALA), monovalent … (human, UniProt P10747 19-152, biotin on C-terminal avi tag); test: from SPR KD values
T3 construct: also called biotinylated huCD28-Fc antigen; not shown: human IgG1 Fc fragment with hole and PG-LALA mutations; human IgG1 Fc fragment with knob and PG-LALA mutations

[6] = molecular target: T4, Hu N(A2-B2)A-avi-His, chimeric CEACAM1 protein with CEACAM5 domains A2 and B2 (human, biotinylated avi-tag (Example 2.2)); test: SPR ProteOn, biotinylated antigen on NLC chip
T4 construct: also called hu N(A2-B2)A-avi-His B; human CEA (A2 domain)
T4 chain: T1 chain

[7] = molecular target: T5, human HER3 on T-47D cells (human, UniProt P21860 20-1342); test: flow cytometry
T5 construct: also called ErbB3

koff (N(A2B2)A-avi-His [2]): 7.99e-05 s⁻¹
B2: CEA(P006.038-combo1)-CD28(SA_Variant 15) bispecific 1+1 IgG (bispecific antibody)
heavy 1: EIVLTQSPATLSLSPGERATLSCRASSSVTYIHWYQQKPGQAPRSWIYATSNLASGIPARFSGSGSGTDFTLTISSLEPEDFAVYYCQHWSSVPPTFGQGTKLEIKSSASTKGPSVFPLAPSSKSTSGGTAALGCLVKDYFPEPVTVSWNSGALTSGVHTFPAVLQSSGLYSLSSVVTVPSSSLGTQTYICNVNHKPSNTKVDKKVEPKSCDKTHTCPPCPAPEAAGGPSVFLFPPKPKDTLMISRTPEVTCVVVDVSHEDPEVKFNWYVDGVEVHNAKTKPREEQYNSTYRVVSVLTVLHQDWLNGKEYKCKVSNKALGAPIEKTISKAKGQPREPQVCTLPPSRDELTKNQVSLSCAVKGFYPSDIAVEWESNGQPENNYKTTPPVLDSDGSFFLVSKLTVDKSRWQQGNVFSCSVMHEALHNHYTQKSLSLSP
light 1: EVQLLESGGGLVQPGGSLRLSCAASGFYFTDYAMNWVRQAPGKGLEWLGVISNKANAYTTEYSASVKGRFTISRDKSKNTLYLQMNSLRAEDTATYYCTRDRGIRFGFDYWGQGTTVTVSSASVAAPSVFIFPPSDEQLKSGTASVVCLLNNFYPREAKVQWKVDNALQSGNSQESVTEQDSKDSTYSLSSTLTLSKADYEKHKVYACEVTHQGLSSPVTKSFNRGEC
heavy 2: not shown
light 2: not shown

Kd [6]: 0.29 nM
B5: Molecule M: CEA-CD28(SA) 1+1 format (bispecific antibody, human IgG1, kappa, L234A L235A)
light 1: not shown
heavy 1: not shown
heavy 2: QAVLTQPASLSASPGASASLTCTLRRGINVGAYSIYWYQQKPGSPPQYLLRYKSDSDKQQGSGVSSRFSASKDASANAGILLISGLQSEDEADYYCMIWHSGASAVFGGGTKLTVLSSASTKGPSVFPLAPSSKSTSGGTAALGCLVKDYFPEPVTVSWNSGALTSGVHTFPAVLQSSGLYSLSSVVTVPSSSLGTQTYICNVNHKPSNTKVDKKVEPKSCDKTHTCPPCPAPEAAGGPSVFLFPPKPKDTLMISRTPEVTCVVVDVSHEDPEVKFNWYVDGVEVHNAKTKPREEQYNSTYRVVSVLTVLHQDWLNGKEYKCKVSNKALGAPIEKTISKAKGQPREPQVCTLPPSRDELTKNQVSLSCAVKGFYPSDIAVEWESNGQPENNYKTTPPVLDSDGSFFLVSKLTVDKSRWQQGNVFSCSVMHEALHNHYTQKSLSLSP
light 2: EVQLVESGGGLVQPGRSLRLSCAASGFTVSSYWMHWVRQAPGKGLEWVGFIRNKANGGTTEYAASVKGRFTISRDDSKNTLYLQMNSLRAEDTAVYYCARDRGLRFYFDYWGQGTTVTVSSASVAAPSVFIFPPSDEQLKSGTASVVCLLNNFYPREAKVQWKVDNALQSGNSQESVTEQDSKDSTYSLSSTLTLSKADYEKHKVYACEVTHQGLSSPVTKSFNRGEC
notes: anti-CEA arm is Medi-565; also called P1AE3127

Continued, binder first:

B1: P005.102 Fab fragment (Fab, V domains shown)
VH: EVQLLESGGGLVQPGGSLRLSCAASGFTFTDYYMNWVRQAPGKGLEWLGFIGNKANAYTTEYSASVKGRFTISRDKSKNTLYLQMNSLRAEDTATYYCTRDRGIRFQFDYWGQGTTVTVSS
VL: EIVLTQSPATLSLSPGERATLSCRASSSVTYIHWYQQKPGQAPRSWIYATSNLASGIPARFSGSGSGTDFTLTISSLEPEDFAVYYCQHWSSKSPTFGQGTKLEIK
koff (N(A2B2)A-avi-His [1]): 0.000392 s⁻¹

B3: Molecule 11R: CEA (P002.139)-CD28 (SA_Variant 15) 1+1 format (bispecific antibody)
heavy 1: B2 heavy 1 with R24H, V93K
light 1: B2 light 1 with I104L, G107Y
heavy 2: not shown
light 2: not shown
notes: also called P1AE8371
EC50 [3]: 4.1 nM

B4: FAP (4B9) - CD28 (CD28(SA)_Variant 8) 1+1 (bispecific antibody, human IgG1, kappa, L234A L235A)
heavy 1: EIVLTQSPGTLSLSPGERATLSCRASQSVTSSYLAWYQQKPGQAPRLLINVGSRRATGIPDRFSGSGSGTDFTLTISRLEPEDFAVYYCQQGIMLPPTFGQGTKVEIKSSASTKGPSVFPLAPSSKSTSGGTAALGCLVKDYFPEPVTVSWNSGALTSGVHTFPAVLQSSGLYSLSSVVTVPSSSLGTQTYICNVNHKPSNTKVDKKVEPKSCDKTHTCPPCPAPEAAGGPSVFLFPPKPKDTLMISRTPEVTCVVVDVSHEDPEVKFNWYVDGVEVHNAKTKPREEQYNSTYRVVSVLTVLHQDWLNGKEYKCKVSNKALGAPIEKTISKAKGQPREPQVCTLPPSRDELTKNQVSLSCAVKGFYPSDIAVEWESNGQPENNYKTTPPVLDSDGSFFLVSKLTVDKSRWQQGNVFSCSVMHEALHNHYTQKSLSLSP
light 1: EVQLLESGGGLVQPGGSLRLSCAASGFTFSSYAMSWVRQAPGKGLEWVSAIIGSGASTYYADSVKGRFTISRDNSKNTLYLQMNSLRAEDTAVYYCAKGWFGGFNYWGQGTLVTVSSASVAAPSVFIFPPSDEQLKSGTASVVCLLNNFYPREAKVQWKVDNALQSGNSQESVTEQDSKDSTYSLSSTLTLSKADYEKHKVYACEVTHQGLSSPVTKSFNRGEC
heavy 2: not shown
light 2: not shown
notes: also called P1AE3131
EC50 killing (nM), TCB-mediated killing of MV3 target cells [4]: 2.33 nM | fold reduction of affinity compared to the parental CD28 clone [5]: ~20 fold

B6: Molecule 14B: HER3(lumretuzumab)-CD28 (SA_Variant 15) 1+1 format (bispecific antibody, human IgG1, kappa, L234A L235A)
heavy 1: not shown
light 1: not shown
heavy 2: DIVMTQSPDSLAVSLGERATINCKSSQSVLNSGNQKNYLTWYQQKPGQPPKLLIYWASTRESGVPDRFSGSGSGTDFTLTISSLQAEDVAVYYCQSDYSYPYTFGQGTKLEIKSSASTKGPSVFPLAPSSKSTSGGTAALGCLVKDYFPEPVTVSWNSGALTSGVHTFPAVLQSSGLYSLSSVVTVPSSSLGTQTYICNVNHKPSNTKVDKKVEPKSCDKTHTCPPCPAPEAAGGPSVFLFPPKPKDTLMISRTPEVTCVVVDVSHEDPEVKFNWYVDGVEVHNAKTKPREEQYNSTYRVVSVLTVLHQDWLNGKEYKCKVSNKALGAPIEKTISKAKGQPREPQVCTLPPSRDELTKNQVSLSCAVKGFYPSDIAVEWESNGQPENNYKTTPPVLDSDGSFFLVSKLTVDKSRWQQGNVFSCSVMHEALHNHYTQKSLSLSP
light 2: QVQLVQSGAEVKKPGASVKVSCKASGYTFRSSYISWVRQAPGQGLEWMGWIYAGTGSPSYNQKLQGRVTMTTDTSTSTAYMELRSLRSDDTAVYYCARHRDYYSNSLTYWGQGTLVTVSSASVAAPSVFIFPPSDEQLKSGTASVVCLLNNFYPREAKVQWKVDNALQSGNSQESVTEQDSKDSTYSLSSTLTLSKADYEKHKVYACEVTHQGLSSPVTKSFNRGEC
notes: also called P1AF0151; HER3-CD28
binding result [7]: binds
